The target in the experiment is T1, Cynomolgus NKp46 (Macaca fascicularis (cynomolgus), UniProt Q95JB9 22-254).
T1 construct: also called cynomologus NKp46; macaca fascicularis NKp46
In words: not stated (human IgG1).

T1 sequence (Q95JB9 22-254): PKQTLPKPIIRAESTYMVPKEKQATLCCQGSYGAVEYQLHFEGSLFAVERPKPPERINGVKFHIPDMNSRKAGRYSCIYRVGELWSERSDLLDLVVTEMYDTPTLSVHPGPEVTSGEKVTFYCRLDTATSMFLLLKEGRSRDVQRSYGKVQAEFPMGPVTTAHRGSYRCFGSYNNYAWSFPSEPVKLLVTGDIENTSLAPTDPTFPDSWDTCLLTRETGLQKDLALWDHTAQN

B1: NKp46-4 H2L2 (antibody, human IgG1, V domains shown)
VH: QVQLVQSGAEVKKPGASVKVSCKASGYTFTSFTMHWVRQAPGQGLEWIGYINPSSGYTEYNQKFKDRTTITADKSTSTAYMELSSLRSEDTAVYYCVRGSSRGFDYWGQGTLVTVSS
VL: DIQMTQSPSSLSASVGDRVTITCRASENIYSNLAWFQQKPGKAPKLLVYAATNLADGVPSRFSGSGSGTDYTLTISSLQPEDFATYYCQHFWGTPRTFGGGTKVEIK
notes: Produced as human IgG1
B1: the “fold lower affinity for cynomolgus NKp46 than for human NKp46” value was determined as 10 fold.

B2: NKp46-4 H3L2 (antibody, human IgG1, V domains shown)
VH: QVQLVQSGAEVKKPGASVKVSCKASGYTFTSFTMHWVRQAPGQGLEWIGYINPSSGYTEYNQKFKDRTTLTADKSTSTAYMELSSLRSEDTAVYYCVRGSSRGFDYWGQGTLVTVSS
VL: DIQMTQSPSSLSASVGDRVTITCRASENIYSNLAWFQQKPGKAPKLLVYAATNLADGVPSRFSGSGSGTDYTLTISSLQPEDFATYYCQHFWGTPRTFGGGTKVEIK
notes: Produced as human IgG1
As for B2, the “fold lower affinity for cynomolgus NKp46 than for human NKp46” value came out at 10 fold.

The record behind these values is patent publication US20240174748A1 (INNATE PHARMA, published 2024).
